Values joined by “and” are separate entries in the source; they are usually repeats but may differ in a detail not shown here. Identical values can stand only once.

For experiment [1], the target named is T1, recombinant human TTR, denatured (misfolded) (human, UniProt P02766 21-147). In words: SPR Biacore T200, antibody captured by anti-mouse antibody, Gu-hTTR 0.4-100 nM as analyte, 1:1 fit. The protocol: (§1) Anti-Human antibody was immobilized on flow cells 1 and 2, Anti-Mouse antibody was immobilized on flow cells 3 and 4 on sensor chip CM3 (GE Healthcare Life Sciences) via amine coupling, chimeric and murine 18C5 antibodies (ligand) were captured to a level to ensure a maximum binding of analyte of 50 RU (approximately 250RU of ligand binding). Various concentrations of Gu-TTR (ranging from 0.4 nM to 100 nM) were passed over the captured ligand at 50 μL/min in running buffer (HBS+0.05% P-20, 1 mg/mL BSA, 50 mM Gu-HCl) for 300s association time and 900s dissociation time. Regeneration of the chip surface was accomplished by 2 short injections of 3M Magnesium Chloride or 2 short injections of 10 mM Glycine-HCl at pH 1.7. Data was blank subtracted to both a sensor not containing ligand and 0 nM analyte concentration. Analysis was performed using a global 1:1 fit with Biacore Evaluation software (v3.0) with bulk refractive index set to zero RU.
A general note: SPR reads the build-up and loss of mass on a sensor chip optically.

Experiment [2] deals with T1, recombinant human TTR, denatured …. Nature of the experiment: SPR Biacore T200, antibody captured by anti-mouse antibody, Gu-hTTR as analyte, 1:1 fit. The protocol:
(§2) Anti-Mouse antibody was immobilized on sensor chip CM3 (GE Healthcare Life Sciences) via amine coupling, and murine antibodies (ligand) were captured to a level to ensure a maximum binding of analyte of 50 RU (approximately 250RU of ligand binding). Various concentrations of Gu-TTR (ranging from 0.4 nM to 100 nM) were passed over the captured ligand at 50 μL/min in running buffer (HBS+0.05% P-20, 1 mg/mL BSA, 50 mM Gu-HCl) for 300 s association time and 900 s dissociation time. Regeneration of the chip surface was accomplished by 2 short injections of 10 mM Glycine-HCl at pH 1.7. Concentrations of Gu-cTTR used ranged from 1-1000 nM, while concentrations of Human TTR tetramer ranged from 10 nM to 10,000 nM. Data was blank subtracted to both a sensor not containing ligand and 0 nM analyte concentration. Analysis was performed using a global 1:1 fit with Biacore Evaluation software (v3.0) with bulk refractive index set to zero RU.

The target in experiment [3] is native tetrameric human TTR (human, UniProt P02766 21-147). In words: SPR Biacore T200, antibody captured by anti-mouse antibody, human TTR tetramer 10-10,000 nM as analyte, 1:1 fit. The protocol:
as §2

In experiment [4] the target is Cynomolgus TTR denatured in 6 M Guanidine Hydrochloride (Cynomolgus, UniProt Q8HXW1 21-147). Nature of the experiment: SPR Biacore T200, antibody captured by anti-mouse antibody, Gu-cTTR 1-1000 nM as analyte, 1:1 fit. The protocol: as §2
In experiment [5] the target is T1, recombinant human TTR, denatured …. Nature of the experiment: SPR Biacore T200, antibody captured by anti-human antibody, Gu-hTTR 0.4-100 nM as analyte, 1:1 fit. The protocol:
as §1

For experiment [6], the target named is misfolded TTR in plasma of ATTR patients (human, UniProt P02766 21-147). In words: MSD ECL competition: m14G8 spiked into plasma of 12 h-ATTR patients, free mis-TTR captured by biotinylated 9D5 (competitor), Dako polyclonal reporter.

B1: mouse 18C5 antibody (antibody, V domains shown)
VH: EVKLLESGGGLVQPGGSLNLSCVASGFDFSRFWMSWARQAPGRGQEWIGEINPGSSTINYTPSLKDKFIISRDNAKNTLFLQMSKVRSEDSALYYCARLGYGNYGWALDYWGQGTSVTVSS
VL: DVLMTQTPLSLPVSLGDQASISCRSSQSIVDSNGNTYLEWYLQKPGQSPKLLIYKVSNRFSGVPDRFSGSGSGTDFTLKISRVEAEDLGIYYCFQGSHVPLTFGAGTKLELK
notes: Used unlabelled (Biacore, Western blot), biotinylated (capture) or SULFO-TAG labelled (reporter) in the MSD assays; also called murine 18C5; m18C5
As for B1, the figures for the Kd in experiment [1] and in experiment [2] were 2.2 nM and 5.9 nM, respectively. For the same molecule, the koff (usually the rate constant with which the complex falls apart) was 0.00021 s⁻¹ in experiment [1], 0.00062 s⁻¹ in experiment [2], 0.00022 s⁻¹ in experiment [3] and 0.00092 s⁻¹ in experiment [4]. Further, the kon (in general, the rate constant with which the complex forms) in experiment [1] came out at 99000 M⁻¹ s⁻¹; in experiment [2], 110000 M⁻¹ s⁻¹; in experiment [3], 2200 M⁻¹ s⁻¹; in experiment [4] it was 100000 M⁻¹ s⁻¹.

B2: chimeric 18C5 antibody (antibody, human IgG1, kappa, V domains shown)
VH: B1 VH
VL: DVLMTQTPLSLPVSLGDQASISCRSSQSIVDSNGNTYLEWYLQKPGQSPKLLIYKVSNRFSGVPDRFSGSGSGTDFTLKISRVEAEDLGIYYCFQGSHVPLTFGAGTKLELKR
notes: Mouse 18C5 variable regions on human IgG1/kappa constant regions, expressed in CHO cells
Take B2: in experiment [5], the dissociation constant Kd – broadly, the equilibrium constant for the complex coming apart – stood at 1.8 nM; the koff is 0.00016 s⁻¹; the kon is 130000 M⁻¹ s⁻¹.

B3: Mouse 14G8 (antibody, V domains shown)
VH: EVKLVESGGGLVQPGGSLKLSCAASGFTFSSYTMSWVRQTPEKRLELVAEINNSGDTTYYPDTVKGRFTISRDNAKNTLYLQMSSLKSEDTAMYYCARHYYYGGGYGGWFFDVWGTGTTVTVSS
VL: DIVMTQAAPSVPVTPGESVSISCRSNKSLLHSNGNTYLYWFLQRPGQSPQLLIYRVSNLASGVPDRFSGSGSGTAFTLRISRVEAEDVGVYYCMQHLEYPLTFGAGTKLELKR
For the molecule B3, the EC50 (commonly the concentration giving half of the maximal effect) in experiment [6] is 343 nM and ~50 µg/mL.

The record behind these values is patent publication US20200249244A1 (PROTHENA BIOSCIENCES, published 2020).
